Test results: the DeepSol protein solubility set

Assay: soluble on expression in E. coli; label from the status in PepcDB or PDB records

Row | Sequence | soluble on expression in E. coli
1 | MNNLIRLRDGVAEVCRDDPWQLLRELPDALPPGPLLLPLAAWLERRGEAGAAAPWLAPDDEVEALLPHFAELPLIAVDFPSFRDGRGYSLAYLLRVRLGWSGELRAVGDVLRDQLSHMRQCGFDAFAVREDKNVEDALKGLAGLSVLYGRSAIEPRPLFRRR | not soluble
2 | MSSLGASFVQIKFDDLQFFENCGGGSFGSVYRAKWISQDKEVAVKKLLKIEKEAEILSVLSHRNIIQFYGVILEPPNYGIVTEYASLGSLYDYINSNRSEEMDMDHIMTWATDVAKGMHYLHMEAPVKVIHRDLKSRNVVIAADGVLKICDFGASRFHNHTTHMSLVGTFPWMAPEVIQSLPVSETCDTYSYGVVLWEMLTREVPFKGLEGLQVAWLVVEKNERLTIPSSCPRSFAELLHQCWEADAKKRPSFKQIISILESMSNDTSLPDKCNSFLHNKAEWRCEIEATLERLKKLERDLSFKEQELKERERRLKMWEQKLTEQSNTPLLLPLAARMSEESYFESKTEESNSAEMSCQITATSNGEGHGMNPSLQAMMLMGFGDIFSMNKAGAVMHSGMQINMQAKQNSSKTTSKRRGKKVNMALGFSDFDLSEGDDDDDDDGEEEDNDMDNSE | soluble
3 | MVRRLTSPRLEFEAAAIYEYPEHLHSFLNDLPTRPGVYLFHGESDTMPLYIGKSVNIRSRVLSHLRTPDEAAMLRQSRRISWICTAGEIGALLLEARLIKEQQPLFNKRLRRNRQLCALQLNEKRVDVVYAKEVDFSRAPNLFGLFANRRAALQALQSIADEQKLCYGLLGLEPLSRGRACFRSALKRCAGACCGKESHEEHALRLRQSLERLRVVCWPWQGAVALKEQHPEMTQYHIIQNWLWLGAVNSLEEATTLIRTPAGFDHDGYKILCKPLLSGNYEITELDPANDQRAS | not soluble
4 | MGSDKIHHHHHHMQRLMNNIMKVENFLAQKSINYDKIDRFLMFRMYEKYKKYFKNIPIIQLIGTNGKGSTGRYLTQLLENLNYKIGHYTSPHIFSFNERFYLDGKIANDEELEQAHIRLEEIFKQDLQKLSYFEYATFLAMILFQKCDFIVLEAGVGGEYDATSIFERRMSIFTRIGFDHIQILGNSLEDIARTKLKVMAPIALISDEQEQNVLNLAKKIAFLKKANLQVSSLNPFLKEKFEIYCKKFVLPYFLKHNLKLALKACEILTSQEKTLEALKKLQELNLQGRCQEISPNFFVDVGHNPMAAKAMLDKFQGEKINLIYNAYLDKDIFQILNTLKPIIDTIQIYKYKSAERKLADDEIYSIASKLGMQCKEFVKLEENKKNLVFGSFMLVENFLKEWCGKK | not soluble
5 | MQMLDRLESEILADRVSEESRRWLASCGLTVEQMKNQMDPVYTPARKIHLYHCDHRGLPLALISTEGATAWCAEYDEWGNLLSDENPHHLQQLIRLPGQQYDEESGLYYNRHRYYDPLLGRYITQDPIGLKGGWNFYQYPLNPVINVDPQGLVDINLYPESDLIHSVADEINIPGVFTIGGHGTPTSIESATRSIMTAKDLAYLIKFDGNYKDGMTVWLFSCNTGKGQNSFASLEHHHHHH | not soluble
6 | MSYTTDEVHFLLDLDAEITAVAGAITRDHAMTKATAVKDAATFHKHFGANGRAAMELCASRTSAQGKLPHDWLMCHDSSQQATPLTVAQQRAHRIHRVCGSEAIVHDVTCSIGTEGAAITDLGMAYHGSDLDMSRLLMARHNVPTGLFFQADALKRASTSSDVIIADPARRAEGRRITKPDQLIPPLPQLVDHWRIATTTAAPMAIKCAPGLDFQEWDGLVSVVSVAGGVKEACLYTPELSEGLTREAIMIGPDQSVDVLNDRHGGEVPAGDPGTFIIDPDGAVVRAGLVQHYAAREQLWMLDEHIAYLTGDRIPQGRSGFRFIEMVGLKQLKSALVAHDAGSLEILVRGVDVDPDQLRKKLKLKGNTPMAVICTRIGRKGVALICHAREHSQT | not soluble
7 | NALHVINMVGTRHATPYGQDICTRFLADLSVLCPNALIVSGLAYGIDIHAHRAALQNHFKTIGVLAHGLDRIYPAEHRKTAVSMLEQGGLLTEFTSGTNPDRQNFVKRNRIVAGMSDATVVIESAAKGGALITAELAESYHRDCFAFPGRCNDEYSIGCNNLIRKNQAVLITSAEDLVKAMGWESSPKTEKT | not soluble
8 | MTLETAFMLPVQDAQHSFRRLLKAMSEPGVIVALHQLKRGWQPLNIATTSVLLTLADNDTPVWLSTPLNNDIVNQSLRFHTNAPLVSQPEQATFAVTDEAISSEQLNALSTGTAVAPEAGATLILQVASLSGGRMLRLTGAGIAEERMIAPQLPECILHELTERPHPFPLGIDLILTCGERLLAIPRTTHVEVC | soluble
9 | MSDDDSSHDLPAANLQQLRLPDSASLRPAFSTHRPRILILYGSLRTVSYSRLLAEEARRLLEFFGAEVKVFDPSGLPLPDAAPVSHPKVQELRELSIWSEGQVWVSPERHGAMTGIMKAQIDWIPLSTGSIRPTQGKTLAVMQVSGGSQSFNAVNQMRILGRWMRMITIPNQSSVAKAFQEFDANGRMKPSSYYDRVVDVMEELVKFTLLTRDCSAYLTDRYSERKESAAELEHRVTLKSVHHHHHH | soluble
10 | KPKSAVAPPGAPKKEHVNVVFIGHVDAGKSTIGGQIMYLTGMVDERTLEKYEREAKEKNRETWYLSWALDTNQEERDKGKTVEVGRAYFETEKKHFTILDAPGHKSFVPNMIGGASQADLAVLVISARKGEFETGFEKGGQTREHAMLAKTAGVKHLIVLINKMDDPTVNWSNERYEECKEKLVPFLKKVGFNPKKDIHFMPCSGLTGANLKEQSDFCPWYIGLPFIPYLDNLPNFNRSVDGPIRLPIVDKYKDMGTVVLGKLESGSICKGQQLVMMPNKHNVEVLGILSDDVETDSVAPGENLKIRLKGIEEEEILPGFILCDLNNLCHSGRTFDAQIVIIEHKSIICPGYNAVLHIHTCIEEVEITALICLVDKKSGEKSKTRPRFVKQDQVCIARLRTAGTICLETFKDFPQMGRFTLRDEGKTIAIGKVLKLVPEKD | soluble
11 | MAAHFDLTDLQLLVHIGDWHSLTRGAEKSHLSLPAASTRVKNLEEHFGTQLLYRTSQGVTLTPSGEAMLRHARTVMQQVEQMRGDMQEFARGVKGHVRVLANTTAMTEFMPAVLARYLAAHPDVNVELRERLSYLVVRAVADGSADIGVVAGCAPDQKLQFIPYRKDRLVVVTPAGHRLAAEESVAFADTLADDYVGLSEWSAIHPFLVQAAASLGRTFKFRVEVGNFEAVCRMIESGVGIGVIPESAALRYARNLDIALVGLTDEWAVRELQICVKNLDSLPVFARELVETLVADGDAAG | soluble
12 | MSSEELEQVWSNIKSEARALAECEPMLASFFHATLLKHENLGSALSYILANKLANPIMPAIAIREVVEEAYRSDAHMIVSAARDILAVRLRDPAVDKYSTPLLYLKGFHALQAYRIGHWLWAQDRKALAIYLQNQVSVAFGVDIHPAATIGCGIMLDHATGIVIGETAVVENDVSILQSVTLGGTGKTSGDRHPKIREGVMIGAGAKILGNIEVGRGAKIGAGSVVLQSVPAHTTAAGVPARIVGKPESDKPSLDMDQHFNGSIQGFEYGDGI | not soluble
13 | MGSDKIHHHHHHMAKTPANKNDQTKDGRFEEALWDAANKLRGSVESSEYKHIVLSLIFLKFISDTFEQQRQKLIDTGYEKHIDMVQAYTKDNVFYLPAESRWSFIQQNAKQEDIALKIDTALSTIEKTNQSLKGALPDNYFSRLGLTASKLAALIDVVNNIDTIGNPEEDTVGRVYEYFLGKFAATEGKGGGEFYTPKSVVNLIAEMVEPYQGKIYDPCCGSGGMFVQSIKFIESHHGNTKDVSIYGQEYTSTTYKLAKMNLAIRGISSNLGDVAADTFFKDQHEDLKADFIMANPPFNQKDWRASDELVDDPRWAGYPTPPTGNANYAWILHMISKLSEHGTAGFVLANGSMSTTTSGEGEIRQQIIENDLVDCMIALPGQLFYTTQIPVCLWFINKDKQAKSADSKARGLRNRSGETLFIDARAIGSMISRTNKELTKDDIEAIAKTYHAWRGEKEAGGYEAYTDEAGYCKSATLDDMKANDYVLTPGRYVGAAAIEDDGISFETKMLELSQTLYAQMQASEKLDATIRQNLEVLGYGE | not soluble
14 | MGHHHHHHENLYFQSHLYFQSHDCGSAVTERPKAAPIPTVNPEGKLKKEPNMFSPTLMLPGLGTLSSSQMYPACSQMPTQPAQLGPGKQDTLHSCWQQLYSPSPSASSLLSLHSHSSFTAEVPQPGAQGSSSLPAYNPLNWPDEKNSSFYRNFGNTHGMGAALVSAAGMQSVSSSSIVQGTHQASATTASIMTMPRTPGEVPFLRQQVGYRS | not soluble
15 | GSHHPFTAQIVAVTASGYDSEKGHVPANIADGDVKTRWAASGESWVQLELDKEQSIENILIVPFKPTERKLKFSIFYSNDGKNWQPLAEGLETSSADKNGEKLTFTPVTAKYIKLDTFGTDVNNWSAINEIAINSAAALPSRAIK | soluble
16 | MKKRAACLCFRSEREDEVLLVSSSRYPDRWIVPGGGMEPEEEPGGAAVREVYEEAGVKGKLGRLLGVFEQNQDPEHRTYVYVLTVTELLEDWEDSVSIGRKREWFKVEDAIKVLQCHKPVHAEYLEKLKAHHHHHH | soluble
17 | MSLIIKKLKQSHSVKILCEVFNVHRSSYHYWLKRPALINAETIKLRSLISEAHAASNGSAGARTIADIVTNQGVKLSRYRATKLMRTLGLVSCQEPKHRYRKASQEHIDVPNHLSRQFAVTAPNEVWAGDVTYIWTGNRWMYLAVVIDLFARKVIGWSMSLSPDSRLTGKALSMAYESRGKPKGVMFHSDQGSHYTSRKYRQLLWRFQIKQSLSRRGNCWDNAPIERFFRSLKTEWVPTVGYRSFAEAQQEITRYIIGYYCQLRPHQYNGGLTPNESERLYWENSKTVANFSEGHHHHHH | not soluble
18 | MNIQITFTDSVRQGTSAKGNPYTFQEGFLHLEDKPHPLQCQFFVESVIPAGSYQVPYRINVNNGRPELAFDFKAMKRA | soluble
19 | MFGCITMSENNQCVIVGIAGASASGKSLIASTIYNELRAKVGDHQIGVITEDCYYKDQSHLSMEERVKTNYDHPSALDHDLLCQHLQMLARGEAVEVPEYSYTEHTRTEQTTTMTPKKVIILEGILLLTDPRLRDLMHATVFMDTPLDICLLRRVKRDVQERGRTMESVLKQYQETVRPMFMQFIEPSKQYADIIVPRGGKNRIAIDVLKAHIAKLLKS | not soluble
20 | MMIYCARIVAIGLFVADGLTDKMLITFDSNGPKDCLDYSLSLEPSFREESLMILPGDRLLLAGHDYLVTSVGKGAQQALFELGHLTLVFNGDLNACHVGAVHLSGPVPKLRDLHGNLVIEEGRP | soluble
21 | MKKWLLAAGLGLALATSAQAADKIAIVNMGSLFQQVAQKTGVSNTLENEFKGRASELQRMETDLQAKMKKLQSMKAGSDRTKLEKDVMAQRQTFAQKAQAFEQDRARRSNEERGKLVTRIQTAVKSVANSQDIDLVVDANAVAYNSSDVKDITADVLKQVK | soluble
22 | MGSDKIHHHHHHMDLASKYFNGVNWRYIDHSSGLEPMQSFAFDDTFCESVGKDISDNVVRTWIHQHTVILGIHDSRLPFLKDGIDYLTNEIGYNAIVRNSGGLGVVLDQGVLNISLMFKGQTETTIDEAFTVMYLLISKMFEDENVDIDTMEIEHSYCPGKFDLSIDGKKFAGISQRRVRGGIAVQIYLCVEGSGSERALMMQTFYEHALKGEVTKFKYPEIEPSCMASLETLLNKTITVQDVMFLLLYAIKDLGGVLNMTPITQEEWQRYDTYFDKMIERNKKMIDQMQ | not soluble
